Data on one molecule can be found in publication PMC5666081, “Solution structure of CXCL13 and heparan sulfate binding show that GAG binding site and cellular signalling rely on distinct domains” (Open Biology, 2017).

The test has as its target T1, ΔN-CXCL13 (murine CXCL13 residues 31-109 with the initiating methionine) (murine).
T1 chain: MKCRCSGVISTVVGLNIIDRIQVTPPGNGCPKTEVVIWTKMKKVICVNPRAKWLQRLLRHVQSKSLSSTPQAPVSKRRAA
As to the kind of experiment: NMR titration; [15N,1H] correlation spectra at different protein concentrations; monomer and dimer signals in slow exchange; KD of dimer to monomers from integrated signals of monomer and dimer; T1/T2 relaxation; 20 mM phosphate, 100 mM NaCl, pH 6, 298 K; addition of HS tetrasaccharide dp4 (50 µM on 50 µM ΔN-CXCL13) increases the dimer signals. To be noted: both partners purified.

In general, Kd refers to the equilibrium constant for the complex coming apart. Low readings indicate a tighter complex, high ones a looser complex. Broadly, the stoichiometry N is the number of molecules, sites or subunits per partner or assembly.

B1: ΔN-CXCL13 (murine CXCL13 residues 31-109 with the initiating methionine) (domain or fragment)
chain: MKCRCSGVISTVVGLNIIDRIQVTPPGNGCPKTEVVIWTKMKKVICVNPRAKWLQRLLRHVQSKSLSSTPQAPVSKRRAA
modifications: initiating Met kept (piece 1); paper residue numbers are mature, offset +21 to the precursor; two disulfides expected from the chemokine fold / initiating Met kept (piece 1); paper residue numbers …
On to B1, for which binding was put at a Kd of 300 ± 100 µM and the “stoichiometry N” value came to 2.
